Reference: US9441018B2, “Gene from tidal flat metagenome and a novel protein displaying both phospholipase and lipase activities” (KOREA RESEARCH INSTITUTE OF BIOSCIENCE AND BIOTECHNOLOGY, priority 2011, dated 2016)

Key:
[1] = Clear zone on solid medium supplemented with phosphatydilcholine emulsion (phospholipase activity); assay type: biochemical; details: 0.5% phosphatydilcholine, 0.5% taurocholic acid, 20 mM CaCl2
Method: (§1) The recombinant plasmid pFosPlaG derived from the metagenome library was isolated in the solid nutritive medium supplemented with tricaprylin emulsion which has been widely used for the isolation/confirmation of lipase gene. To investigate the phospholipase activity of the gene, the purified phospholipase/lipase MPIaG was loaded on the solid medium supplemented with phosphatydilcholine emulsion [0.5% (w/v) phosphatydilcholine, 0.5% (w/v) taurocholic acid, 20 mM CaCl2], followed by observing clear zone to confirm the activity.

[2] = Substrate specificity to various phospholipids, clear zone on solid media with phospholipid emulsions; assay type: biochemical
Method: To investigate substrate specificity to various phospholipids, the purified phospholipase/lipase MPIaG was added to the solid media respectively supplemented with various phospholipid emulsions. Then, the activity over phospholipid was investigated by comparing the size of clear zone. The phospholipid emulsion was composed of 0.5% (v/v) phospholipid substrate, 0.5% (w/v) taurocholic acid, and 20 mM CaCl2. The substrates used herein were phosphatydilcholine (PC, 99% purity), phosphatidylethanolamine (PE, 97% purity), phosphatidylserine (PS, 97% purity), phosphatidylinositol (PI, 98% purity), phosphatidylglycerol (PG, 99% purity), and phosphatidic acid (PA, 98% purity).

[3] = LC-MS of phosphatidylcholine hydrolysis products (chain length and site specificity); assay type: biochemical
Method: Specificity of MPIaG over the location and chain length of phospholipid was investigated. To do so, phosphatydilcholine with different carbon chain lengths (C6, C7, C8, and C14) and 1-oleoly-2-palmitoyl-phosphatidylcholine (OPPC) were used. The purified MPIaG was added to 50 mM tris buffer (pH 8.0) containing 5 mM CaCl2 and 150 mM NaCl, followed by enzyme reaction along with 1 mM substrate for 12 hours at 25° C. The reaction product was analyzed by liquid chromatography mass spectrometry (LC-MS) using Finnigan LCQ. Advantage MAX ion trap mass spectrometer (Thermo Fisher Scientific) was equipped with electrospray ionization source. HPLC isolation was performed with HILIC guard column (4×2.0 mm, Phenomenex) and Kinetex HILIC column (2.6 μm, 2.1×100 mm, Phenomenex). The moving phase A was 10 mM ammonium formate whose pH was regulated as 3.0 with formic acid. The moving phase B was acetonitrile. Gradient elution was performed at the flow rate of 0.2 ml/min as follows: 0˜10 min., 10%˜40% A (linear gradient); 10˜20 min., 70% A (isocratic). Column temperature was room temperature, and the injection volume was 10 μL. Mass spectra were obtained from m/z in the negative ion mode 100˜1200 at the maximum ion injection time of 3 microscans and 200 ms.

[4] = Clear zone on solid medium supplemented with tricaprylin emulsion (lipase activity); assay type: biochemical; details: solid nutritive medium
From the text: When tricaprylin is decomposed by lipase, clear zone is formed. So, the colonies forming such clear zone were selected.
as §1

[5] = Expression in E. coli BL21(DE3), Ni-NTA purification and SDS-PAGE
Method: The E. coli BL21(DE3)/pET22b(+)-MPIaG constructed in Example 4 was cultured in a liquid nutritive medium [1% (w/v) trypton, 0.5% (w/v) yeast extract, 0.5% (w/v) NaCl] containing ampicillin (100 μg/ml) until OD600 reached 0.6. IPTG (isopropyl-β-D-thiogalactopyranoside) was added to the culture solution (final conc.: 0.5 mM), followed by further culture for 12 hours. E. coli BL21(DE3)/pET22b(+)-MPIaG was obtained by centrifugation, which was suspended in binding buffer (50 mM Tris-HCl, pH 8, 500 mM NaCl, 10 mM imidazole). The cell suspension was lysed by ultrasonication. The cell lysate was centrifuged to obtain supernatant. The supernatant was loaded on Ni-NTA (nitriloteiacetic acid) column to elute phospholipase and lipase by imidazole gradient, followed by dialysis-concentration. To confirm the purified phospholipase/lipase MPIaG, SDS-PAGE (sodium dodecyl sulfate-polyacrylamide gel electrophoresis) was performed, followed by staining with Coomassie brilliant blue.

[6] = Spectrophotometric assay with para-nitrophenyl ester substrate; assay type: biochemical
Method: (§2) First method was pH-stat.
(§3) To investigate the enzyme activity over pH, the activities were measured in different pH buffers. […] After staying at different pH for 180 minutes, the remaining activity was measured. As a result, the enzyme activity was maintained stably in the pH range of 5˜10 (FIG. 5). Phospholipase and lipase activity over temperature was also investigated. […] The enzyme activity was still observed at 5° C. (39% of maximum activity). When the temperature was raised more than the optimum activity temperature above, the activity was decreased rapidly (FIG. 6). In addition, melting temperature was also investigated by using differential scanning calorimetry (DSC). As a result, the melting temperature was 38.5° C. (FIG. 7).
Spectrophotometric assay was also performed at room temperature to investigate the activity of MPIaG to para-nitrophenyl ester with various carbon chain lengths, the synthetic substrate. At this experiment, para-nitrophenyl butyrate (C4), para-nitrophenyl caprylate (C8), para-nitrophenyl caprate (C10), para-nitrophenyl laurate (C12), para-nitrophenyl palmitate (C16), and para-nitrophenyl stearate (C18) were used as substrates for the comparison of the activity. 5 mM Ca^2+ was added to the reaction solution. The reaction product para-nitrophenol was continuously measured for 5 minutes at OD450 using DU800 spectrophotometer (Beckman). To exclude the non-enzymatic hydrolysis value of the substrates, the activity was measured without enzyme for every measurement under different conditions, which would be the control reaction.

[7] = Melting temperature by differential scanning calorimetry (DSC); assay type: physicochemical
Method: as §3
So, it was expected that the structural stability was increased by calcium ion (FIG. 7).

[8] = pH-stat / pH titration of released fatty acid (hydrolysis of triacylglyceride, olive oil, phosphatidylcholine); assay type: biochemical; details: for specific enzyme activity: pH 8.0, pH titrator
Method: as §2
The activity of MPIaG to hydrolyze triacylglyceride, olive oil, and phosphatidylcholine was measured by titrating free fatty acid using pH titrator (842 Tirando, Metrohm). By adding 10 mM NaOH solution, pH of the substrate emulsion was regulated to 8.0. Then, a proper amount of enzyme solution was added thereto. Excretion rate of fatty acid was measured by using pH titrator for 5 minutes. […] To exclude the non-enzymatic hydrolysis value of the substrates, the activity was measured without enzyme addition for every measurement under different conditions, which would be the control reaction.
To further investigate specificity to substrate each having different carbon length, pH titration was performed with triacylglycerides such as tributyrin (C4), tricaprylin (C8), tricaprin (C10), trilaurin (C12), tripalmitin (C16), and triolein (C18:1).

B1: MPIaG: catalytic domain of PlaG, SEQ. ID. NO: 5, protein having both phospholipase and lipase activities, from tidal flat metagenome (protein)
chain: LNQSDYEKAIDYGKLSAQAYDWDDYAAAHVGMGFFANIDDIKATDFATPNYVEVQSVGGYIDWWGTDGLDFKVFQNTETDDLVVAYKGTEPLSPVDWVADAEQIFGNSEQYQKAVDFARDLSAQVEQYNVQNGLTGDAAMQLSFTGHSLGGGLATASALATGREAMAFDAAGLSQGTINNLGLDIRHASKITNFNVKGDWLSDHNKQMDDTTLGSELAGIVPETKQYGNTYWLEGINDIADFGGWLVPDNNMAVDFAKSILNHAWHVYVYMLENDKFL
modifications: phospholipase/lipase MPlaG AA
With B1 the “clear zone formation on phosphatydilcholine emulsion medium” value [1] was “clear zone was clearly formed”, the “clear zone formation on phosphatydilcholine emulsion medium” value ([1]; listed as the gene of the present invention) was “formed clear zone on both solid media” and the “activity to phospholipid substrate (clear zone)” value (from here on “activity … (clear zone)”) ([2]; substrate phosphatidic acid (PA)) was “did not decompose”. The “activity … (clear zone)” value ([2]; substrate phosphatidylethanolamine (PE)) was “excellent activity”, the “activity … (clear zone)” value ([2]; substrate phosphatidylglycerol (PG)) was “excellent activity” and the “activity … (clear zone)” value ([2]; substrate phosphatidylserine (PS)) was “did not decompose”. The “activity … (clear zone)” value ([2]; substrate phosphatydilcholine (PC)) was “excellent activity”, the “hydrolase activity of phosphatydilcholine to lysophosphatidylcholine, best substrate” value ([3]; 1 mM substrate, 12 hours, 25° C., 5 mM CaCl2) was “highest to 1,2-Dioctanoyl-phosphatidylcholine (diC8PC)” and the “hydrolysis site on OPPC (site specificity)” value ([3]; OPPC, 25° C., 12 hours, LC-MS) was “phospholipase A1”. For the same molecule, the “product 2-hexanoyl-lysophosphatidylcholine” value ([3]; diC6PC, LC-MS after reaction) was 10.4%, the “remaining substrate 1,2-dihexanoyl-phosphatidylcholine” value ([3]; diC6PC, LC-MS after reaction) was 89.6% and the “product 2-heptanoyl-lysophosphatidylcholine” value ([3]; diC7PC, LC-MS after reaction) was 49.5%. For the same molecule, the “remaining substrate 1,2-diheptanoyl-phosphatidylcholine” value ([3]; diC7PC, LC-MS after reaction) was 50.5%, the “product 2-octanoyl-lysophosphatidylcholine” value ([3]; diC8PC, LC-MS after reaction) was 50.4% and the “remaining substrate 1,2-dioctanoyl-phosphatidylcholine” value ([3]; diC8PC, LC-MS after reaction) was 49.6%. The “product 2-myristoyl-lysophosphatidylcholine” value ([3]; diC14PC, LC-MS after reaction) was 3.5%, the “remaining substrate 1,2-dimyristoyl phosphatidylcholine” value ([3]; diC14PC, LC-MS after reaction) was 96.5% and the substrate chain-length preference ([3]; phosphatidylcholines C6, C7, C8, C14) was “phospholipid having medium length acyl straight chain”. For the same molecule, the “clear zone formation on tricaprylin emulsion medium” value [4] was “formed clear zone on both solid media”, the “solubility of the expressed protein” value [5] was “expressed in a water-soluble form” and the “temperature of maximum activity” value [6] was 25 °C. The “temperature up to which the enzyme is active” value [6] was “up to 40 °C”, the “enzyme activity, % of maximum activity” value ([6]; at 5° C.) was 39% and the “pH of maximum activity” value ([6]; different pH buffers) was 8. The substrate chain-length preference ([6]; para-nitrophenyl esters C4-C18, 5 mM Ca^2+) was “para-nitrophenyl ester having long acyl straight chain”, the “pH range in which enzyme activity was maintained stably” value ([6]; remaining activity after 180 minutes at different pH) was 5˜10 and the “highest activity, to para-nitrophenyl palmitate (C16)” value ([6]; room temperature, 5 mM Ca^2+, reference of the fold not stated) was “approximately 112 times”. For the same molecule, the “specific activity compared to the full-length phospholipase/lipase PlaG” value ([6]; synthetic substrate) was “at least two times increased specific activity”, the melting temperature ([7]; 0 mM calcium) was 38.5 °C and the melting temperature ([7]; 2 mM calcium ion) was 47.2 °C. For the same molecule, the melting temperature ([7]; 5 mM calcium ion) was 49.2 °C, the interfacial activity ([8]; as the concentration of tributyrin increased) was “showed interfacial activity” and the “specific activity by pH-stat” value ([8]; substrate Olive oil) was 114.8 ± 11.3. The “specific activity by pH-stat” value ([8]; substrate Tributyrin (C4)) was 140 ± 6.4, the “specific activity by pH-stat” value ([8]; substrate phosphatydilcholine) was 13.4 ± 1.5 and the specific enzyme activity ([8]; toward olive oil) was 2957±144 Umg^−1. For the same molecule, the specific enzyme activity ([8]; toward phosphatidylcholine) was 1735±147 Umg^−1, the substrate chain-length preference ([8]; triglycerides C4-C18:1, pH titration) was “triglyceride having short acyl straight chain” and the “hydrolysis of triolein (C18:1)” value ([8]; triolein, not degraded by esterase) was “decomposed triolein”.
